Results taken from the supplement of paper PMC10567573.

B1: NEK8 (parent)
chain: YTFGSNQHGQLGTNTRRGSRAPCK
B2: PLK2 (parent)
chain: MELLRTITYQPAASTKMCEQALGK

Variants of: B1
Assay: protein stability index of a GFP-peptide fusion (GPS, HEK-293T) (PSI 1-6); higher = more stable
Conditions: c terminus: a fixed tail appended
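Further: lentivirally expressed fusions sorted by FACS into six bins by GFP to DsRed ratio, PSI derived from sequencing read proportions per bin multiplied by bin number.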

Row | Variant | protein stability index
1 | K24V | 3.68
2 | K24Q | 3.79
3 | K24I | 3.08
4 | K24P | 4.09
5 | K24F | 2.93
6 | K24S | 3.24
7 | K24L | 3.81
8 | K24C | 2.72
9 | K24D | 3.91
10 | K24T | 3.43
11 | K24W | 2.59
12 | K24Y | 2.63
13 | K24H | 3.52
14 | K24N | 3.2
15 | K24A | 3.45
16 | K24M | 2.94
17 | K24R | 3.44
18 | K24E | 3.77
19 | K24G | 4.29
20 | P22A | 3.82
21 | P22H | 3.53
22 | P22K | 3.82
23 | P22S | 3.96

Row | Variant | protein stability index
24 | P22C | 3.84
25 | P22D | 4.13
26 | P22E | 3.88
27 | P22R | 3.82
28 | P22F | 3.66
29 | P22G | 4.3
30 | P22I | 3.94
31 | P22T | 3.95
32 | P22W | 3.51
33 | P22Y | 3.72
34 | P22V | 3.99
35 | P22Q | 3.73
36 | P22L | 3.4
37 | P22M | 3.44
38 | P22N | 4.22
39 | S19M | 4.05
40 | S19E | 3.72
41 | S19K | 3.77
42 | S19Y | 3.52
43 | S19Q | 4.02
44 | S19V | 3.77
45 | S19P | 3.89
46 | S19F | 3.03

Row | Variant | protein stability index
47 | S19I | 3.33
48 | S19L | 3.82
49 | S19C | 3.08
50 | S19T | 3.81
51 | S19R | 3.91
52 | S19W | 2.8
53 | S19G | 3.91
54 | S19N | 3.86
55 | S19A | 3.95
56 | S19D | 4.18
57 | S19H | 3.95
58 | R20C | 3.33
59 | R20K | 4.38
60 | R20H | 3.96
61 | R20I | 3.52
62 | R20G | 3.97
63 | R20Y | 3.07
64 | R20F | 2.85
65 | R20M | 3.15
66 | R20D | 3.81
67 | R20E | 4.1
68 | R20N | 4.05
69 | R20V | 3.48

Row | Variant | protein stability index
70 | R20P | 3.83
71 | R20T | 3.86
72 | R20L | 3.53
73 | R20A | 4.07
74 | R20Q | 4.17
75 | R20W | 2.21
76 | R20S | 3.55
77 | N14P | 3.77
78 | N14M | 3.44
79 | N14G | 3.49
80 | N14K | 3.88
81 | N14W | 3.21
82 | N14S | 3.88
83 | N14L | 3.51
84 | N14E | 3.69
85 | N14C | 2.29
86 | N14V | 2.06
87 | N14F | 3.71
88 | N14D | 4.35
89 | N14T | 2.98
90 | N14Y | 3.63
91 | N14I | 2.73
92 | N14H | 4.07

Row | Variant | protein stability index
93 | N14R | 3.88
94 | N14Q | 3.69
95 | C23E | 4.27
96 | C23V | 4.25
97 | C23Q | 4.18
98 | C23N | 4.19
99 | C23K | 4.21
100 | C23P | 3.89
101 | C23A | 3.95
102 | C23M | 3.61
103 | C23H | 4.25
104 | C23T | 3.9
105 | C23S | 3.72
106 | C23Y | 3.46
107 | C23I | 3.59
108 | C23W | 3.37
109 | C23G | 3.4
110 | C23D | 4.19
111 | C23F | 3.61
112 | C23R | 4
113 | C23L | 3.91
114 | R17V | 3.66
115 | R17G | 4.09

Row | Variant | protein stability index
116 | R17F | 3.18
117 | R17T | 3.65
118 | R17H | 3.94
119 | R17D | 3.84
120 | R17Q | 4.02
121 | R17L | 3.92
122 | R17C | 3.07
123 | R17N | 3.97
124 | R17I | 3.51
125 | R17Y | 3.5
126 | R17S | 3.81
127 | R17A | 3.46
128 | R17K | 3.73
129 | R17M | 3.88
130 | R17P | 3.75
131 | R17E | 4.07
132 | A21F | 3.54
133 | A21T | 4.3
134 | A21C | 2.94
135 | A21Q | 3.89
136 | A21G | 3.7
137 | A21R | 3.53
138 | A21M | 3.5

Row | Variant | protein stability index
139 | A21N | 4.1
140 | A21E | 4.32
141 | A21L | 3.54
142 | A21Y | 3.38
143 | A21K | 4.24
144 | A21S | 3.84
145 | A21P | 3.69
146 | A21H | 3.79
147 | A21W | 2.69
148 | A21D | 4.11
149 | A21I | 3.69
150 | A21V | 3.84
151 | R16K | 3.67
152 | R16C | 3.36
153 | R16I | 3.56
154 | R16H | 4.25
155 | R16G | 4.24
156 | R16P | 3.94
157 | R16V | 3.99
158 | R16Q | 3.97
159 | R16W | 1.8
160 | R16M | 3.63
161 | R16N | 4.02

Row | Variant | protein stability index
162 | R16L | 3.82
163 | R16T | 4.21
164 | R16A | 3.81
165 | R16D | 4.05
166 | R16E | 3.63
167 | R16F | 2.57
168 | R16S | 3.85
169 | R16Y | 3.37
170 | T15K | 3.94
171 | T15Y | 3.67
172 | T15I | 4.14
173 | T15P | 3.6
174 | T15D | 3.85
175 | T15N | 3.82
176 | T15E | 4.17
177 | T15A | 3.9
178 | T15V | 4.17
179 | T15G | 3.77
180 | T15S | 4.28
181 | T15W | 3.49
182 | T15L | 3.7
183 | T15F | 3.56
184 | T15M | 4.09

Row | Variant | protein stability index
185 | T15C | 3.56
186 | T15Q | 4.25
187 | T15R | 3.98
188 | T15H | 4.05
189 | G18K | 4.05
190 | G18C | 3.48
191 | G18D | 3.94
192 | G18F | 2.85
193 | G18L | 3.77
194 | G18V | 3.46
195 | G18W | 3.23
196 | G18I | 3.61
197 | G18A | 3.33
198 | G18E | 3.69
199 | G18P | 3.53
200 | G18T | 4.08
201 | G18S | 3.43
202 | G18M | 3.47
203 | G18R | 3.95
204 | G18N | 3.81
205 | G18H | 3.52
206 | G18Y | 3.26
207 | G18Q | 3.27

Variants of: B2
Assay: as above
Conditions: c terminus: a fixed tail appended

Row | Variant | protein stability index
208 | L4P | 4.25
209 | L4T | 3.67
210 | L4E | 3.69
211 | L4D | 4.39
212 | L4K | 4.05
213 | L4V | 2.77
214 | L4I | 2.92
215 | L4S | 3.91
216 | L4H | 2.6
217 | L4F | 2.05
218 | L4W | 1.7
219 | L4A | 2.55
220 | L4R | 3.26
221 | L4Y | 1.98
222 | L4N | 4.01
223 | L4M | 1.61
224 | L4G | 3.76
225 | L4Q | 2.58
226 | L4C | 2.02
227 | M1P | 4.09
228 | M1R | 3.04
229 | M1I | 2.03
230 | M1H | 3.67
231 | M1N | 4.1
232 | M1L | 2.37
233 | M1C | 1.51

Row | Variant | protein stability index
234 | M1E | 4.07
235 | M1K | 3.84
236 | M1T | 3.74
237 | M1D | 3.64
238 | M1G | 3.84
239 | M1Q | 3.84
240 | M1F | 2.04
241 | M1V | 2.23
242 | M1A | 2.18
243 | M1Y | 2.54
244 | M1S | 2.17
245 | M1W | 2.16
246 | L3C | 2.17
247 | L3K | 1.37
248 | L3A | 2.82
249 | L3W | 2.48
250 | L3Q | 2.08
251 | L3T | 1.94
252 | L3M | 3.04
253 | L3R | 2.24
254 | L3E | 2.56
255 | L3F | 2.56
256 | L3D | 2.46
257 | L3P | 3.11
258 | L3V | 2.49
259 | L3N | 1.88

Row | Variant | protein stability index
260 | L3G | 1.89
261 | L3H | 1.62
262 | L3S | 2.21
263 | L3I | 2.63
264 | L3Y | 2.07
265 | T6V | 2.55
266 | T6M | 1.73
267 | T6F | 1.68
268 | T6A | 1.93
269 | T6G | 3.05
270 | T6Q | 1.93
271 | T6Y | 1.6
272 | T6D | 3.2
273 | T6R | 2.04
274 | T6E | 3.17
275 | T6C | 1.92
276 | T6H | 2.2
277 | T6W | 1.99
278 | T6L | 1.69
279 | T6S | 1.64
280 | T6P | 4.1
281 | T6N | 2.81
282 | T6I | 2.65
283 | T6K | 2.19
284 | R5D | 3.95
285 | R5C | 1.47

Row | Variant | protein stability index
286 | R5F | 2.18
287 | R5A | 1.92
288 | R5E | 3.55
289 | R5K | 3.52
290 | R5P | 3.83
291 | R5N | 3.79
292 | R5S | 2.71
293 | R5G | 3.02
294 | R5V | 4.09
295 | R5I | 3.09
296 | R5Y | 1.4
297 | R5Q | 3.26
298 | R5H | 3.02
299 | R5T | 2.47
300 | R5W | 2.88
301 | R5M | 2.36
302 | R5L | 3.55
303 | I7K | 3.24
304 | I7L | 2.03
305 | I7G | 3.72
306 | I7Q | 2.79
307 | I7M | 2.85
308 | I7N | 3.19
309 | I7P | 2.12
310 | I7A | 2.34
311 | I7F | 1.94

Row | Variant | protein stability index
312 | I7C | 2.1
313 | I7E | 2.89
314 | I7H | 2.8
315 | I7D | 4.13
316 | E2K | 2.7
317 | E2M | 2.09
318 | E2I | 1.51
319 | E2S | 2.38
320 | E2T | 2.28
321 | E2R | 2.15
322 | E2L | 2.15
323 | E2Q | 1.91
324 | E2G | 2.69
325 | E2A | 1.79
326 | E2N | 2.61
327 | E2V | 2.13
328 | E2P | 2.73
329 | E2F | 1.69
330 | E2D | 2.75
331 | E2W | 2.57
332 | E2Y | 2.03
333 | E2C | 1.93
334 | E2H | 2.05
